Assay results as given in the supplement of paper PMC9112550, “Optimization of the antimicrobial peptide Bac7 by deep mutational scanning” (BMC Biology, 2022).

Test system: Escherichia coli TOP10
Assay: shrunken log2 fold change of peptide-encoding DNA abundance (4.5 h post-induction vs induction); higher = less antimicrobial activity (less host growth inhibition)
Conditions: time post-induction: 4.5 h; library: site-saturation at positions 5, 18, 19, 20
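Note: peptides expressed intracellularly from a pBAD plasmid library in pooled LB shake-flask culture, induced with 0.3% L-arabinose, DNA abundance read by NGS, three biological replicates, DESeq2 with apeglm shrinkage.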

Sequence | shrunken log2 fold change
RRIRARPPRLPRPRPRPDILPRP | 0.0584
RRIRARPPRLPRPRPRPDISPRP | 0.277
RRIRARPPRLPRPRPRPDKFPRP | -0.19
RRIRARPPRLPRPRPRPDKGPRP | 0.168
RRIRARPPRLPRPRPRPDKQPRP | -0.0794
RRIRARPPRLPRPRPRPDLSPRP | 0.209
RRIRARPPRLPRPRPRPDNKPRP | -0.24
RRIRARPPRLPRPRPRPDNTPRP | -0.214
RRIRARPPRLPRPRPRPDNVPRP | -0.059
RRIRARPPRLPRPRPRPDPLPRP | 0.867
RRIRARPPRLPRPRPRPDQTPRP | -0.0212
RRIRARPPRLPRPRPRPDRAPRP | 0.642
RRIRARPPRLPRPRPRPDRGPRP | -0.283
RRIRARPPRLPRPRPRPDRMPRP | 0.0124
RRIRARPPRLPRPRPRPDRQPRP | 0.0329
RRIRARPPRLPRPRPRPDRWPRP | 0.685
RRIRARPPRLPRPRPRPDWCPRP | 0.0911
RRIRARPPRLPRPRPRPDWYPRP | -0.213
RRIRARPPRLPRPRPRPDYYPRP | -0.135
RRIRARPPRLPRPRPRPEDQPRP | 0.0203
RRIRARPPRLPRPRPRPEDYPRP | -0.0332
RRIRARPPRLPRPRPRPEEGPRP | 0.457
RRIRARPPRLPRPRPRPEGTPRP | 0.251
RRIRARPPRLPRPRPRPEHEPRP | 0.00993
RRIRARPPRLPRPRPRPEHKPRP | 0.0692
RRIRARPPRLPRPRPRPEHVPRP | 0.269
RRIRARPPRLPRPRPRPEKRPRP | 0.128
RRIRARPPRLPRPRPRPEKVPRP | 0.131

Sequence | shrunken log2 fold change
RRIRARPPRLPRPRPRPEMFPRP | 0.522
RRIRARPPRLPRPRPRPEMYPRP | 0.151
RRIRARPPRLPRPRPRPENHPRP | -0.102
RRIRARPPRLPRPRPRPEPIPRP | 0.716
RRIRARPPRLPRPRPRPEQDPRP | 0.805
RRIRARPPRLPRPRPRPEQLPRP | 1.47
RRIRARPPRLPRPRPRPESRPRP | 0.147
RRIRARPPRLPRPRPRPEVQPRP | 0.76
RRIRARPPRLPRPRPRPEVYPRP | -0.00104
RRIRARPPRLPRPRPRPEWFPRP | 0.0641
RRIRARPPRLPRPRPRPEYAPRP | 0.672
RRIRARPPRLPRPRPRPFAGPRP | 0.0859
RRIRARPPRLPRPRPRPFASPRP | 0.0388
RRIRARPPRLPRPRPRPFCGPRP | -0.0184
RRIRARPPRLPRPRPRPFCPPRP | 0.11
RRIRARPPRLPRPRPRPFCSPRP | -0.0878
RRIRARPPRLPRPRPRPFDDPRP | -0.0122
RRIRARPPRLPRPRPRPFEAPRP | 0.564
RRIRARPPRLPRPRPRPFETPRP | 0.0585
RRIRARPPRLPRPRPRPFIEPRP | 0.0738
RRIRARPPRLPRPRPRPFIHPRP | -0.45
RRIRARPPRLPRPRPRPFLEPRP | -0.219
RRIRARPPRLPRPRPRPFMLPRP | -0.0197
RRIRARPPRLPRPRPRPFMQPRP | -0.0876
RRIRARPPRLPRPRPRPFNWPRP | 0.0857
RRIRARPPRLPRPRPRPFPKPRP | 0.178
RRIRARPPRLPRPRPRPFPTPRP | 0.311
